Data taken from the domain aggregation screens of Martell et al. (2025).

assay: soluble fraction after stress (log2 fold change); higher = more stays soluble; pooled small domains, quantitative proteomics; settings: stress: 50 degC
Outline: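 The measure of aggregation propensity here is the base-two logarithm of the fold change in the soluble amount of each protein after stress. A higher value means more of that protein stays in solution. Stress was applied at 50°C to pooled libraries of small protein domains, read out by high-throughput quantitative proteomics.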

“HMTASTLSYSKFNEQVVQNQVRKVTFQGEQVKGELISGQTFTTTVPANDTTLWPMLKAHNVDTAVTAA” and “HMTEDQDWAIFKQKLKAQTEIDLDLYKEPQMKHRIKNLIQNAGFDSYVQYFDYVYLNQDRLAAFLENLTV” are within 0.2 log units of each other in “soluble fraction (log2)” value: 0.229 for the first, 0.0704 for the second.

“HMGQQTVEPLSRRELEVLSLLAKGLSNQQIADRLVISVRTVKKHVENIHGKLGVQSRTQAVARARELGLV” and “HMDRTIGEIGLVTETIDSTLESGRVMVDGLSWKARTSDNTVLEAGTRVQVKEIHGVTLTVEKA” are within 0.2 log units of each other in “soluble fraction (log2)” value: 0.122 for the first, 0.166 for the second.

Compared with “HMHAGMKSWTIQYEKSPIYGSFLMYKDGNIYIQKEDNVVVHFPLDRFSQNDQAILKSRIEKIDQINKSS”, “HMRRGPLTPDDFVLDMRVVHPRYGVGRIVALSGSGESRKATVDFGGSIGRMKFVLSQSPLKP” is lower in “soluble fraction (log2)” value: -0.0347 for the first, -0.414 for the second.

Going from “HMYMFSGQRLKSLRKEKKMSQEKLGSLLNISKVAVSNWENAKSFPTMDNLNELAKVLEVEPHYF” to “HMVDERMVTYINSLDKGNTPFLNELEKEALANYVPIIRREMQSFLKVLLQIKAPLRILEVGTAVGFSTILM”, the “soluble fraction (log2)” value rises from -1.16 to 0.199.

“HMPPLKYLKVKSYLEAVAVKAESAMRMPTVRELMNQFNVSLATVNRALSELENDGVIVRRQGSGIVAAG” and “HMLDLYYDSEDKLLIDMGTGEVIRSFADDKRSLVFDAQAKILFDEDSGDIVYSSYFDKLITDKLASKS” are within 0.2 log units of each other in “soluble fraction (log2)” value: 0.147 for the first, -0.0393 for the second.

Going from “HMVLVSNYGEVVRKARERKGLDHGSLAMKISEKKSIITSVESGNMKPNEKLIKKLENFLNINLM” to HMDSEQLSGLVNMGFSVYQAKTALEMFDNDIERAANYL, the “soluble fraction (log2)” value rises from -1.33 to -0.425.

Compared with “HMIEEIETQFLFDFGLIGHPNSAKIREKLSEALGIGYVNGKQLQKRLMMFGITKQQVVDVLTD”, “HMKDYTIDDIINSKVEHPLGGYQSRFKVGEYEVSVVGGRQTNHGDFIHTFELAIFDKNNNFLRNLTPVTID” is higher in “soluble fraction (log2)” value: -4.94 for the first, -0.0394 for the second.

Compared with “HMDYLSEFITDKVVRADGYSIRKGELSNEFKQWFITNVGTKNPKPKEIHDYMDRKFGKNKNGIWKNVKIKL”, “HMPAKDAEFTAFVRSATPTLTRTAYLLTGDRETASDLVQEAFVRTYLAWRRVRPEEATAYTRRVLVN” is higher in “soluble fraction (log2)” value: -0.38 for the first, 0.0368 for the second.

Compared with “HMYRYYSTLRPITPGAYPKPADNPAMLIHNFDNREYVGKIGREAWGYVEYNNPLTKEQIEAFDFVAE”, “HMEQQSIYLENRERMTINQVIDVDAFDEETLWANLKEGAVEISGSGLHIEKLDLAEGVLIVSGIIRAFAYV” is lower in “soluble fraction (log2)” value: 0.0677 for the first, -0.647 for the second.

First: HMKRDRLYGITIYLLNHGRTSAKTLAEYFEVSVRTIQRDMDALSMAKIPIIAYPGSDGGYEIQEGYRL
Second: HMGPGDTTIPTTIIGMSLEEARNELSAAGLLVARIIPVDSNSRTGTVLKITPDAGSIIKAGSGVELEIAS
The “soluble fraction (log2)” value of the first is lower: -3.1 for the first, 0.0765 for the second.

First: HMAMLSKREAEILKLTAKGHSSTDIAQRLTISVNTVEFHRRRIMQKLNAANVAEAVGKAAELGLFF
Second: HMLNWINSDVLERFNSLTKEKQKAIVADTETRLNGLSQARFKVAKSSSNERLIAEFAIEINEAIMRAAAL
The “soluble fraction (log2)” value of the first is higher: -0.438 for the first, -1.49 for the second.

Going from “HMFNEFEDIPDIISAEGIDPAMREEVAANLKKYYKNPDAMLALAPLEREYYEKLVGILSEKIELKKEN” to “HMNEVIIKNWSNAVGRNIKIKTKRGRPIFGRLLAINDQQLTIASKYMRGNATITVAREDVVSMSVS”, the “soluble fraction (log2)” value falls from 0.563 to -0.516.

Going from “HMSRRIEIELTSSRPDGSWTWRAAGAREPKGVLDGTLLSQGSKPGDVVKAEAEFDIDGITIVSITQ” to “HMPAPMISIQLNGEPRNVQPGISIAALVREIGLEPAKVAVERNREIVPRSTLGDVLIEAGDQLEIVHFVG”, the “soluble fraction (log2)” value rises from -0.18 to 0.159.

“HMSVLSVASKNQAINPGQVVALLKDGIKLNDDGRVEILDNNNNIRYNEKGNLLSIEERVKEFLDANPHFRQ” and “HMRVVPEILERAVAVFEALGVDRLPSSTLADRLGYDSPEALADVLRPLGVRPKKYRDGKSTARGYLAADLG” are within 0.2 log units of each other in “soluble fraction (log2)” value: -0.368 for the first, -0.473 for the second.

First: HMFDSYDIYDEAGNTVNTVKGKLSWGHLLEIYDRFDNHIGTVQERVLTFLPKFLMYINGQEIGEIR
Second: HMNAVITTQKAKQIALAHAGLSEADVNYVKAELENDDGVQVYDIEFYSKNIEYDYDINAVTGEIMSFDHDI
The “soluble fraction (log2)” value of the first is higher: -0.0596 for the first, -0.47 for the second.

“HMDEPADVAIFDGFRQMSEDELKKLYESLNLAMTFKDFLHIQNYFKNEENREPSVTEIRVLDTYWSDH” and “HMGETDDDFRELEEFVEKTKFDKLGTFMYSKEEGTPAARLPEQIHGNTKKSRYNKIMSIQQKVSNEN” are within 0.2 log units of each other in “soluble fraction (log2)” value: 0.174 for the first, -0.0112 for the second.

“HMGGSDIYLGAFNIPQGSVRVTSGGQALTEGKDFTIDYNLGSVKIINQAILNSGIPVSVSYENNAG” and “HMLFSEKLKQAMQDLHLNQIQVVGLTGKSKGSISQYISGKQVPSEATQRDIAISLGLEENYFSKK” are within 0.2 log units of each other in “soluble fraction (log2)” value: 0.123 for the first, 0.282 for the second.

First: HMRTKLEEAVEWLQEQLNDGPVLSKELESEAKAADILPGTLRRAGEALGVVKQKQGGRGGWTWSLPR
Second: HMAFRWQQIADTITSMIANGSYPRGSRLPTEAALADSFGVNRHTVRRAVAALRDTGLVQPRQGAGVFVIG
The “soluble fraction (log2)” value of the first is higher: 0.14 for the first, -1.55 for the second.

“HMNELGSLIKRKREELGLSQEELARILGYKHKSSINKIELGLADVPRTKVPAFAKALGMTPVEFS” and “HMDNQYGVYSDEKNNVEIHWKRIDHPSVAKDHLDIEAYQNGKRVDINNQQADHYRYLINQEMNE” are within 0.2 log units of each other in “soluble fraction (log2)” value: 0.0771 for the first, 0.0952 for the second.

First: HMSQLETEEAKRIVLKDLLRLYNNYNIIELEEDEFDRFITYLNMPYDFLQKTSDYDLAVSIKRMYASY
Second: HMEPLPDIPRGTRVSHQTAPADGDMPERRETGWTMTEPIRAQDGLAYVGVSVYGRGVVMLPVNSLSII
The “soluble fraction (log2)” value of the first is lower: -2.3 for the first, -0.319 for the second.

First: HMGPEQLIGKTGIAASELAPRGEVKIEGQIWRAETVGDHVKQGEPVEVVSREGLILRVKPKHPQTRG
Second: HMKYPVYLQLADLIERKINKNEYPLGSKIPSERELIDAFGISRMTVRKAIEVLIEKGLLTRQHGKGTYVSQ
The “soluble fraction (log2)” value of the first is higher: 0.214 for the first, -1.29 for the second.

First: HMDLDYSGIMNVLNQKYHITFYNNKKIQNLMPKLMIIMGYNSIINEIGHSKSLKALINSFEEKLKSYILT
Second: HMLEPGQKVKSVVVDISGDLIYIDLGGKTEGVVELKEFYDEAGEYHVKPGDEIEVFFVSVQNGLKRFTT
The “soluble fraction (log2)” value of the first is lower: -3.02 for the first, -0.0167 for the second.

Compared with “HMKEIIFRGIGEFILDYKSLVIEFLNKNNYANLSMDAPVDEVNKAVANNMLNEDFVTELLLFQRRVE”, “HMKALPSAEDVALARESGRVLSTVLQTRAETQQIDFHDDKGAVRSVTLPTTALRLLLDVLTEIGQGNAV” is higher in “soluble fraction (log2)” value: -1.2 for the first, -0.23 for the second.

“HMPVFYATNRQKTTIHNLKRKKGLDDDAYRATIYSFTHGRTDSSKYMYKYEAAELIQKWLDPE” and “HMYYNDEELDGYRGTPSDAYSDNAVEEFREVLYTLREDEVSGWVRSLQLRGIFLPDAIKDETFLI” are within 0.2 log units of each other in “soluble fraction (log2)” value: -1.7 for the first, -1.59 for the second.

“HMTTRQREALLDYLSRHPDQPLTVREIAAGVEPDGVSLSAVYRNLAELEAAGLIRRESRPGSREAVVQYV” and “HMSGVSESIEKKIQYLLLEKPLPLHDLIEAIEIGKEEDRLKVLRSLMDSDTVKIEDDLYHWNA” are within 0.2 log units of each other in “soluble fraction (log2)” value: 0.049 for the first, -0.0841 for the second.

Going from “HMAENPAYTKGVVNRLYKIRATPYYSYSYNVDQKTYEGRGKQYGEYENLHIGDTITVYYQRSNPSNSEA” to “HMGEPVEIEEPITVRSLSEALGLKSSAIISHLMRQGVFATINQNLDKETAELIAAEYGIELRIK”, the “soluble fraction (log2)” value rises from -0.414 to 0.00995.

First: HMDINNTNFSRDVDNLLQNEEFIKWRIFRTKEWEDYWENFRKENPHMEDALQEAISRFNAVK
Second: HMISKRFQIDEENAHKRIDIFLSHEFDSISRGIVQELIVKGEVLVNDKVTKRNYKLKTGDLVDITINL
The “soluble fraction (log2)” value of the first is higher: 0.156 for the first, -2.59 for the second.

Compared with “HMTESLVITVDPALHGLRLDRGLADALPDRSRSEVQRWIKEGRVQLHGAPAKPSLKLAAGDIVTIALPEE”, “HMSNEIIFNQKSITRFLMNPENNSPMIYPLELGHEMKVIKKNNDWLNVTDEKTGLNGWVISDDFGLTKPEG” is lower in “soluble fraction (log2)” value: 0.393 for the first, -0.212 for the second.

Going from “HMIHTYVETRKVGNNDGLIRVDNKYYRVPQHLVGMKVQIQIDEATISVLQGGVMVATLDKTADVFNPQA” to “HMDSVTLGISFNGKTRFTLDFPADAAAADIEKAALEAEQSQRYLEGMTVAKVIVVPGRIVNIVLK”, the “soluble fraction (log2)” value rises from -0.782 to -0.501.

Compared with “HMENYGEAITYIHGMIEDSSEKMLAASKALKVNANTLIKFMKDPYSVAAHIRDRIVENLANLEKAVKAI”, “HMNKDWQDEVALQRYTMITPLLSEDLDNAKRIAMREKIAQDNLTTARSLYRYEKAYRENGFQGLRPTD” is lower in “soluble fraction (log2)” value: 0.075 for the first, -0.146 for the second.

“HMGANSAYMAMRDRIQQRLLAELSPGVTRSDTAEVRRVVERIFNETTAELGLPLSRLERNDIFDLVLADIL” and “HMNMEDIADKIGRLYDNLPDDLKLMIKYRDIDDMTYDEIARKANLPIGTVRSRLHRARDILLREI” are within 0.2 log units of each other in “soluble fraction (log2)” value: -0.792 for the first, -0.647 for the second.

First: HMGDFNYVMPDFRGLEAHDVSSFLNRNGFLLRPTEHEVSFTQRPGLILMHYPEPGYPFSRSSPITLVVS
Second: HMQQVIEGLDSDRDFITVPEAIALFAVGRQTLYHYIRSGKIPSVNLGQRLTRLSKKQLGELFPLR
The “soluble fraction (log2)” value of the first is higher: -1.03 for the first, -1.63 for the second.

Compared with “HMNTAIPIAIDQLRIGMYIQLGLNWMSHPFPVSSFRIASESQIEILRGLGLAEVRYVPAKSDPVP”, “HMAGTELASIKEIQSLVDRSEEALSARNFFWPKDKSESMLLSFRNMFSRLKLTKMDVQIFHGIFKVMEKS” is higher in “soluble fraction (log2)” value: -2.88 for the first, -0.0116 for the second.

First: HMNLNLDITTYKLEELENLLKLKPNYKQEQIFEAKTKMEKFILKSNLNESKREELYIFLDNIYNKLTNNLL
Second: HMRTQEELVAEVREQMEAMGTIATLYVELYESSEERLVGGVIFEDERHYRFVYEDGLLHYEEEK
The “soluble fraction (log2)” value of the first is lower: -2.17 for the first, -0.206 for the second.

“HMEQAMIVILKENPDRRQLEFLTGWLQKQQIGIHISEGAHQTVLGLVGDATRLDIDMLKQMEIVEDVKRVQ” and “HMEEKVEVPNLSGKTYQQAKALLESYGLVAAKGGEEESEEPVGKVSRWSSAGKSVKKGTTITVWISGGI” are within 0.2 log units of each other in “soluble fraction (log2)” value: -0.0829 for the first, -0.0709 for the second.

Going from “HMLKLEEIQPNATVRGILPDALITVVNVKWFGSEALELTYKDTSGRVANQLLFRDDQPRLEIVE” to “HMRIETLESLANRLAYKAYRTGRKVELEPMNPFERRVIHTALQNSKYATTESEGEDMNRHIVIVPKEGG”, the “soluble fraction (log2)” value rises from -0.538 to -0.0606.

Going from “HMPKLPIIYVLDGHVNKNALTTSGKNKVWIEHELKKHHINSIKDVLIAMTDTEGKFYYQLYD” to “HMGTSQSAVKAILAQLISDENKQKPYSDEALSRLLQQQGIDIARRTVAKYREALNIPPAHQRK”, the “soluble fraction (log2)” value rises from -1.44 to 0.101.

Going from “HMNVNFVQANLANLPNIQAIYQKGNEMLNDMKRGEAREIDEAYSRVDNGVGTEKDFKVLLSFRDKIIAAMQ” to “HMSAVNLNDDEKAVYKSIKSGIRSLDELSLRTGMKIYELMAITVSLEMKGLVTKSPDGTLDAT”, the “soluble fraction (log2)” value falls from 0.362 to 0.147.
